Data as given in patent US11026999B2, “Insulin glargine/lixisenatide fixed ratio formulation” (SANOFI-AVENTIS DEUTSCHLAND GMBH, priority 2013, dated 2021).

Key:
type 2 diabetic patients [1] = experiment: HbA1c, 24-week phase 2 study on top of metformin (Example 1); format: in vivo, human; conditions: mITT population; for HbA1c change from baseline to Week 24 (LOCF), LS Mean (SE): ANCOVA
Procedure: A randomized, 24-week, open-label, 2-arm parallel-group, multicenter study comparing the efficacy and safety of insulin glargine/lixisenatide fixed ratio combination versus insulin glargine on top of metformin in type 2 diabetic patients.
Methodology: This was an open-label, 1:1 randomized, active-controlled, 2-arm, 24-week duration, parallel-group study comparing: • Insulin glargine/lixisenatide fixed ratio (2 U of insulin glargine for 1 μg of lixisenatide) combination • Insulin glargine alone
Diagnosis and criteria for inclusion: Patients with type 2 diabetes mellitus diagnosed for at least 1 year, treated with metformin at a stable dose of at least 1.5 g/day for at least 3 months prior to screening visit, and with HbA1c ≥7%, and ≤10% at screening.
In both groups, the initial daily dose of insulin glargine to be administered during the first week of treatment was 10 U. Afterwards, the dose was adjusted to achieve a target fasting SMPG in the range of 80 to 100 mg/dL (4.4 to 5.6 mmol/L). The dose was titrated weekly until the patient reached the target fasting SMPG. Thereafter, until the end of the study, the dose was adjusted as necessary to maintain a fasting SMPG between 80 and 100 mg/dL (4.4 and 5.6 mmol/1), inclusive. Doses could be reduced or modified at any time for hypoglycemia.
If a 60 U/30 μg dose was not sufficient to maintain FPG/HbA1c below predefined thresholds values, the dose was to be kept at 60 U and a rescue therapy was to be introduced.
Criteria for Evaluation: • Efficacy: • Primary Endpoint: • Change in HbA1c from baseline to Week 24 • Secondary Endpoints: • Change in 2-hour PPG during meal test from baseline to Week 24 • Change in 2-hour plasma glucose excursion during meal test from baseline to Week 24 • Percentage of patients reaching HbA1c ≤6.5% or <7% at Week 24 • Change in 7-point SMPG profiles from baseline to Week 24 (each time point and mean daily value) • Change in body weight from baseline to Week 24, • Average daily Insulin glargine dose at Week 24 • Change in FPG from baseline to Week 24 • Percentage of patients requiring rescue therapy during the 24-week open-label treatment period • Change in 30-minute and 1-hour PPG and plasma glucose excursion during meal test from baseline to week 24 • Percentage of patients reaching HbA1c <7% at week 24 with no documented symptomatic hypoglycemia during the 24-week open label treatment period • Percentage of patients reaching HbA1c <7% with no weight gain at week 24
The primary endpoint (change in HbA1c from baseline to week 24) was analyzed using an analysis of covariance (ANCOVA) model with treatment (insulin glargine/lixisenatide fixed ratio combination, insulin glargine alone), randomization strata of screening HbA1c (<8%, ≥8%), randomization strata of screening BMI (<30 kg/m^2, ≥30 kg/m^2) and country as fixed effects and using the baseline HbA1c value as a covariate.
The non-inferiority of insulin glargine/lixisenatide fixed ratio combination to insulin glargine alone was tested using a 1-sided statistical test with alpha level of 0.025 and a non-inferiority margin of 0.4% HbA1c. […] If non-inferiority is established, then a corresponding check of statistical superiority of insulin glargine/lixisenatide fixed ratio combination over insulin glargine alone would be performed for the primary endpoint.
All categorical secondary efficacy endpoints were analyzed by using Cochran-Mantel-Haenszel (CMH) method stratified by randomization strata of screening HbA1c (<8%, ≥8%) and BMI (<30 kg/m^2, ≥30 kg/m^2).

type 2 diabetic patients [2] = experiment: Injection site reactions and allergic reactions adjudicated by ARAC (Example 1); format: in vivo, human
Source text: A total of 6 patients (5 patients in the combination group and 1 patient in the insulin glargine group) experienced injection site reactions (Table 19). None of these reactions were considered serious or severe or led to treatment discontinuation.
A total of 2 patients (1 [0.6%] in each group) reported 6 events positively adjudicated as allergic reactions by the ARAC with the same diagnosis of allergic rhinitis. None was adjudicated as possibly related to the IMP (table 20).

type 2 diabetic patients [3] = conditions: in vivo
Procedure: Safety: The safety analysis was conducted on the safety population, defined as all randomized patients who received at least one dose of IMP (regardless of the amount of treatment administered). The evaluation of AEs, laboratory, vital sign, and ECG data was descriptive.

[4] = investigator reported terms, Safety population

For “Gly(A21)-Arg(B31)-Arg(B32)-human insulin [Insulin Glargine]”, the “HbA1c at Week 24 (LOCF), Mean (SD)” value (type 2 diabetic patients [1]) was 6.47 (0.64) %, the “HbA1c at Week 24 (LOCF), Median” value (type 2 diabetic patients [1]) was 6.40% and the “HbA1c change from baseline to Week 24 (LOCF), Mean (SD)” value (type 2 diabetic patients [1]) was −1.54 (0.87) %. For the same substance, the “HbA1c change from baseline to Week 24 (LOCF), Median” value (type 2 diabetic patients [1]) was −1.40%, the “Number (%) of patients with HbA1c <7.0% at Week 24” value (type 2 diabetic patients [1]) was 126 (78.3%) n (%) and the “Number (%) of patients with HbA1c ≤6.5% at Week 24” value (type 2 diabetic patients [1]) was 104 (64.6%) n (%). For the same substance, the “Percentage of patients reaching HbA1c <7% at Week 24” value (type 2 diabetic patients [1]) was 78.3%, the “Percentage of patients reaching HbA1c ≤6.5% at Week 24” value (type 2 diabetic patients [1]) was 64.6% and the “HbA1c change from baseline to Week 24 (LOCF), LS Mean (SE)” value (type 2 diabetic patients [1]) was −1.64 (0.057) %. The “HbA1c change from baseline to Week 24 (LOCF), LS Mean (SE)” value (type 2 diabetic patients [1]; listed as insulin glargine) was −1.64%, the Injection site reaction (type 2 diabetic patients [2]; ARAC diagnosis terms, Safety population) was 0 n (%) and the “Rhinitis allergic (ARAC diagnosis ALLERGIC RHINITIS)” value (type 2 diabetic patients [2]; Not related to IMP, Safety population) was 1 (0.6%) n (%). The “Events adjudicated as an allergic reaction by ARAC” value (type 2 diabetic patients [2]; Not related to IMP, TEAE period, Safety population) was 1 (0.6%) n (%), the “Any injection site reactions” value (type 2 diabetic patients [2]; TEAE period, Safety population) was 1 (0.6%) n (%) and the “Injection site reactions: PTs coded from the ARAC diagnosis terms” value (type 2 diabetic patients [2]; TEAE period, Safety population) was 0 n (%). The “Injection site reactions: PTs coded from the investigator reported terms” value (type 2 diabetic patients [2]; TEAE period, Safety population) was 1 (0.6%) n (%), the “Patients who experienced injection site reactions” value (type 2 diabetic patients [2]; in vivo) was 1 patients and the Injection site pain (type 2 diabetic patients [2]; [4]) was 1 (0.6%) n (%). For the same substance, the Injection site pruritus (type 2 diabetic patients [2]; [4]) was 0 n (%), the Injection site rash (type 2 diabetic patients [2]; [4]) was 0 n (%) and the Injection site urticaria (type 2 diabetic patients [2]; [4]) was 0 n (%). The “Rhinitis allergic (ARAC diagnosis ALLERGIC RHINITIS)” value (type 2 diabetic patients [2]; relationship to study treatment: All, Safety population) was 1 (0.6%) n (%), the “Events adjudicated as an allergic reaction by ARAC” value (type 2 diabetic patients [2]; relationship to study treatment: All, TEAE period, Safety population) was 1 (0.6%) n (%) and the “TEAE: HLGT: Infections - pathogen unspecified” value (type 2 diabetic patients [3]) was 31 (19.1%) n (%). For the same substance, the “TEAE: HLGT: Ocular infections, irritations and inflammations” value (type 2 diabetic patients [3]) was 4 (2.5%) n (%), the “TEAE: HLGT: Viral infectious disorders” value (type 2 diabetic patients [3]) was 8 (4.9%) n (%) and the “TEAE: HLT: Abdominal and gastrointestinal infections” value (type 2 diabetic patients [3]) was 1 (0.6%) n (%). For the same substance, the “TEAE: HLT: Conjunctival infections, irritations and inflammations” value (type 2 diabetic patients [3]) was 2 (1.2%) n (%), the “TEAE: HLT: Diarrhoea (excl infective)” value (type 2 diabetic patients [3]) was 6 (3.7%) n (%) and the “TEAE: HLT: Upper respiratory tract infections” value (type 2 diabetic patients [3]) was 21 (13.0%) n (%). The “TEAE: HLT: Urinary tract infections” value (type 2 diabetic patients [3]) was 3 (1.9%) n (%), the “TEAE: Infections and infestations” value (type 2 diabetic patients [3]) was 38 (23.5%) n (%) and the “TEAE: Upper respiratory tract infection” value (type 2 diabetic patients [3]) was 5 (3.1%) n (%). For the same substance, the “TEAE: Urinary tract infection” value (type 2 diabetic patients [3]) was 1 (0.6%) n (%), the “Treatment emergent SAE: HLGT: Infections - pathogen unspecified” value (type 2 diabetic patients [3]) was 1 (0.6%) n (%) and the “Treatment emergent SAE: HLT: Urinary tract infections” value (type 2 diabetic patients [3]) was 1 (0.6%) n (%). For the same substance, the “Treatment emergent SAE: Infections and infestations” value (type 2 diabetic patients [3]) was 1 (0.6%) n (%), the “Treatment emergent SAE: Urinary tract infection” value (type 2 diabetic patients [3]) was 1 (0.6%) n (%) and the “TEAE: HLT: Dental and oral soft tissue infections” value (type 2 diabetic patients [3]; po) was 3 (1.9%) n (%).
